According to US20080108546A1 (VLAAMS INTERUNIVERSITAIR INSTITUUT, published 2008):

Target: T1, E-epitope tagged human RIP2 (human, UniProt O43353 1-540)
T1 construct: ORF cloned in pCAGGS-E, expressed in 293T cells; also called E-RIP2
Experiment: co-immunoprecipitation from 293T lysates, anti-Flag IP, anti-E immunoblot
Experimental: FIG. 4: Interactions of INCA with other CARD-containing proteins. Co-immunoprecipitation assays were performed using lysates from 293T cells that have been transiently transfected with plasmids encoding various epitope-tagged proteins as indicated, including Flag-INCA, E-INCA, E-procaspase-1, E-COP, E-ICEBERG, E-RIP2 and E-procaspase-2 CARD. Immunoprecipitates were prepared using anti-Flag antibody adsorbed to protein G-sepharose and analyzed by SDS-PAGE/immunoblotting using anti-E epitope tag antibody and chemoluminescence-based detection. Aliquots of the same lysates were also analyzed directly by SDS-PAGE/immunoblotting as indicated. IP, immunoprecipitation; WB: Western blotting.
293T is a human embryonal kidney carcinoma cell line. 293T cells were routinely transfected using the calcium phosphate precipitation method (O'Mahoney and Adams, 1994). Cells were seeded the day before transfection at 2×10⁵ cells/6-well. Cells were transfected for 4 h, washed and incubated for another 24 h before lysates were prepared by harvesting the cells and lysing them in ice-cold NP-40 lysis buffer (10 mM HEPES pH 7.4, 142.5 mM KCl, 0.2% NP-40, 5 mM EGTA), supplemented with 1 mM DTT, 12.5 mM β-glycerophosphate, 1 mM Na₃VO₄, 1 mM PMSF, and 1× protease inhibitor mix (Roche, Basel, Switzerland). […] Alternatively, lysates were analyzed directly by immunoblotting after normalization for total protein content. […]

T1 sequence (O43353 whole entry): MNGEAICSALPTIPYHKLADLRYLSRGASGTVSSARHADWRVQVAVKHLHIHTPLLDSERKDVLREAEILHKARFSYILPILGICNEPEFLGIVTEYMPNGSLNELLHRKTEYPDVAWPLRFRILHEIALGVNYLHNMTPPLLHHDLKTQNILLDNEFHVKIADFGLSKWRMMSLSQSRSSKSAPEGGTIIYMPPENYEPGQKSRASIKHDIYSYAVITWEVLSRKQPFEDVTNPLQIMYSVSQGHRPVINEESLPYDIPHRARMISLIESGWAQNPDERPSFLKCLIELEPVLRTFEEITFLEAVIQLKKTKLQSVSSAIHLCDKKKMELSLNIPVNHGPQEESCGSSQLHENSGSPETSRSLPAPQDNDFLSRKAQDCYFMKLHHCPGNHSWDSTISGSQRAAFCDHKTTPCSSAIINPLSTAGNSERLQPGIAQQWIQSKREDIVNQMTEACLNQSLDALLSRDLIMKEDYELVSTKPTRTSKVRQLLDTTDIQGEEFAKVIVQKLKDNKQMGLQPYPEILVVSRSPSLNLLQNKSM

B1: Flag-tagged INCA (Inhibitory CARD) (other, not shown: small tags and cut ends)
chain: MADKVLKEKRKQFIRSVGEGTINGLLGELLETRVLSQEEIEIVKCENATVMDKARALLDSVIRKGAPACQICITYICEEDSHLAGTLGLSAGPTSGNHLTTQDSQIVLPS
notes: Expressed in 293T cells (pCAGGS-Flag) for co-immunoprecipitation; Flag-tagged INCA also expressed stably in THP-1 cells from a retroviral vector; also called Flag-INCA
- binding result: no binding
